The source of these data is paper PMC12867984, “Functional assessment of protein variants in structured domains by fluorescence cross-correlation spectroscopy” (Scientific Reports, 2026).

For this test, the target named is T1, mCherry-BARD1 (UniProt Q99728 1-777).
T1 construct: also called BRCA1 Associated RING Domain 1; source: HeLa, transfected, in live cells and in lysate
T1 sequence (looked up): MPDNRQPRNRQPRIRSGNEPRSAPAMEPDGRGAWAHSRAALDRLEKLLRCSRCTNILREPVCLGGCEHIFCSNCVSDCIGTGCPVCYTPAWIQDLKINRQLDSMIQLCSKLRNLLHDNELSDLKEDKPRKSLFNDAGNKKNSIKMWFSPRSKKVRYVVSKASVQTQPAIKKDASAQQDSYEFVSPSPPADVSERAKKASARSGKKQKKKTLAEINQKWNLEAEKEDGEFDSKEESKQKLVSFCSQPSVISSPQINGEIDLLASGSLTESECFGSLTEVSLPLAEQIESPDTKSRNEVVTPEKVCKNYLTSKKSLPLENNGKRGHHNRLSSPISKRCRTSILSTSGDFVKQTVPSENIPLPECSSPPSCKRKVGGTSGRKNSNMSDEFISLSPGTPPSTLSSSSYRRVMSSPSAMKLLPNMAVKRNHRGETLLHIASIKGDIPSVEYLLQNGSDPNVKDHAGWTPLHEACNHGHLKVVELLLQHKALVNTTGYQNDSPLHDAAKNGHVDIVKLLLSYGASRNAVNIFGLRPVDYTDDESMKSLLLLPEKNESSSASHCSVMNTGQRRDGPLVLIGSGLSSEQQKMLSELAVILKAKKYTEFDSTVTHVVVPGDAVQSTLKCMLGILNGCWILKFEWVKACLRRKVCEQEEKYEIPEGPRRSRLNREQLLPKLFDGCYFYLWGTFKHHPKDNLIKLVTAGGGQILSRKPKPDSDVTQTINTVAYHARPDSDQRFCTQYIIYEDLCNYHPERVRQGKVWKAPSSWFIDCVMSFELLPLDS
In words: fluorescence cross-correlation spectroscopy (FCCS); GFP- and mCherry-tagged proteins co-expressed in live HeLa cells; focal volume in the nucleoplasm (MSH2-MSH6 also in the cytoplasm); room temperature; cross-correlation/autocorrelation ratio. As to conditions: partners not purified.

B1: GFP-BRCA1-C44F (natural protein, UniProt P38398 1-1863, looked up)
chain: MDLSALRVEEVQNVINAMQKILECPICLELIKEPVSTKCDHIFFKFCMLKLLNQKKGPSQCPLCKNDITKRSLQESTRFSQLVEELLKIICAFQLDTGLEYANSYNFAKKENNSPEHLKDEVSIIQSMGYRNRAKRLLQSEPENPSLQETSLSVQLSNLGTVRTLRTKQRIQPQKTSVYIELGSDSSEDTVNKATYCSVGDQELLQITPQGTRDEISLDSAKKAACEFSETDVTNTEHHQPSNNDLNTTEKRAAERHPEKYQGSSVSNLHVEPCGTNTHASSLQHENSSLLLTKDRMNVEKAEFCNKSKQPGLARSQHNRWAGSKETCNDRRTPSTEKKVDLNADPLCERKEWNKQKLPCSENPRDTEDVPWITLNSSIQKVNEWFSRSDELLGSDDSHDGESESNAKVADVLDVLNEVDEYSGSSEKIDLLASDPHEALICKSERVHSKSVESNIEDKIFGKTYRKKASLPNLSHVTENLIIGAFVTEPQIIQERPLTNKLKRKRRPTSGLHPEDFIKKADLAVQKTPEMINQGTNQTEQNGQVMNITNSGHENKTKGDSIQNEKNPNPIESLEKESAFKTKAEPISSSISNMELELNIHNSKAPKKNRLRRKSSTRHIHALELVVSRNLSPPNCTELQIDSCSSSEEIKKKKYNQMPVRHSRNLQLMEGKEPATGAKKSNKPNEQTSKRHDSDTFPELKLTNAPGSFTKCSNTSELKEFVNPSLPREEKEEKLETVKVSNNAEDPKDLMLSGERVLQTERSVESSSISLVPGTDYGTQESISLLEVSTLGKAKTEPNKCVSQCAAFENPKGLIHGCSKDNRNDTEGFKYPLGHEVNHSRETSIEMEESELDAQYLQNTFKVSKRQSFAPFSNPGNAEEECATFSAHSGSLKKQSPKVTFECEQKEENQGKNESNIKPVQTVNITAGFPVVGQKDKPVDNAKCSIKGGSRFCLSSQFRGNETGLITPNKHGLLQNPYRIPPLFPIKSFVKTKCKKNLLEENFEEHSMSPEREMGNENIPSTVSTISRNNIRENVFKEASSSNINEVGSSTNEVGSSINEIGSSDENIQAELGRNRGPKLNAMLRLGVLQPEVYKQSLPGSNCKHPEIKKQEYEEVVQTVNTDFSPYLISDNLEQPMGSSHASQVCSETPDDLLDDGEIKEDTSFAENDIKESSAVFSKSVQKGELSRSPSPFTHTHLAQGYRRGAKKLESSEENLSSEDEELPCFQHLLFGKVNNIPSQSTRHSTVATECLSKNTEENLLSLKNSLNDCSNQVILAKASQEHHLSEETKCSASLFSSQCSELEDLTANTNTQDPFLIGSSKQMRHQSESQGVGLSDKELVSDDEERGTGLEENNQEEQSMDSNLGEAASGCESETSVSEDCSGLSSQSDILTTQQRDTMQHNLIKLQQEMAELEAVLEQHGSQPSNSYPSIISDSSALEDLRNPEQSTSEKAVLTSQKSSEYPISQNPEGLSADKFEVSADSSTSKNKEPGVERSSPSKCPSLDDRWYMHSCSGSLQNRNYPSQEELIKVVDVEEQQLEESGPHDLTETSYLPRQDLEGTPYLESGISLFSDDPESDPSEDRAPESARVGNIPSSTSALKVPQLKVAESAQSPAAAHTTDTAGYNAMEESVSREKPELTASTERVNKRMSMVVSGLTPEEFMLVYKFARKHHITLTNLITEETTHVVMKTDAEFVCERTLKYFLGIAGGKWVVSYFWVTQSIKERKMLNEHDFEVRGDVVNGRNHQGPKRARESQDRKIFRGLEICCYGPFTNMPTDQLEWMVQLCGASVVKELSSFTLGTGVHPIVVVQPDAWTEDNGFHAIGQMCEAPVVTREWVLDSVALYQCQELDTYLIPQIPHSHY
notes: also called p.Cys44Phe; source: HeLa, transfected, in live cells
Regarding B1, the “reduction in binding relative to wild type” value is around 50%.
